# pIC50: −log10 of the molar value. Read-outs that look alike come from different tables or passages of the source.
# Assays:
# Solubility study in PBS = format: physicochemical; details: aqueous buffer, thermodynamic from solid; PBS (pH 7.2 to 7.4); read-out: Solubility, concentration
# Experimental: The mixture was vortexed for 2 min until the solid was dissolved. The solubility was calculated as: C=m/V, C: concentration, m: sample weight, V: PBS total volume.
# Plasma stability study 2 = format: in vitro ADME; details: mouse plasma, 37° C.
# Experimental: • 1) The conjugate compounds were prepared into 1 mg/mL stock solutions with 0.1% TFA-acetonitrile water (1:1); • 2) 10 μL of 1 mg/mL compound stock solution was added into 90 μL of fresh plasma, and the mixture was well mixed by gentle shaking, and transferred to a thermostatic incubator at 37° C. for 0 h, 0.5 h, 1 h, 2 h, 4 h, 6 h, or 24 h of incubation; • 3) at the time points, samples were taken out and 300 μL of methanol solution (containing 10 ng/ml of terfenadine) was added for protein precipitation; • 4) the mixture was centrifuged (13 min, 4° C., 12000 rpm) and the supernatant was collected, and preserved in a −80° C. refrigerator; after collection, the samples were loaded for LC-MS analysis.
# 22RV1 = format: cell-based, human; details: 22RV1, 72 h, CellTiter-Glo
# Source text: (§1) Negative and blank controls were set.
# MDA-MB-231 = format: cell-based, human; details: MDA-MB-231, 72 h, CellTiter-Glo
# Source text: as §1
# BRD4 = target: T1, BRD4 (Homo sapiens, UniProt O60885); assay: Target protein degradation activity, Western Blot; format: cell-based
# T1 construct: endogenous in cells; host or cells: MDA-MB-231, 22RV1
# Experimental: Information on cell lines: MDA-MB-231 (human breast cancer cell) and 22RV1 (human prostate cancer cell)
# • 1) A proper amount of RIPA lysis buffer was added to the Protease Inhibitor Cocktail (1:100) a few minutes before use. • 2) The medium of the cells was discarded. The cells were collected by cell scraper, centrifuged, and washed twice with pre-cooled PBS. The lysis buffer was added at 300 μL per dish. The centrifuge tube was placed on ice and mixed by pipetting for 5 min to allow the lysis buffer to fully contact the cells. • 3) After 30 min of lysis, the lysate was collected, transferred to a centrifuge tube, and centrifuged for 15 min at 12000×g to pelletize the cell debris. • 4) The supernatant was transferred to a new centrifuge tube, for subsequent Western Blot. […]
# The antibody marked by HRP was coupled with an enhanced chemiluminescence reagent for chromogenesis, and the exposure was conducted via an X-ray film. The positions of the antigen-antibody (primary antibody)-antibody (secondary antibody) complex on the nitrocellulose membrane were determined by means of development, washing, and fixation. […]
# β-glucosidase = details: PBS pH 6.8, 25° C.
# Experimental: • 1) CR202AL was formulated into a 500 μg/mL stock solution with PBS (pH 6.8); • 2) 100 μL of 500 μg/mL compound stock solution was added to 775 μL of PBS (pH=6.8) before 125 μL of 100 U/mL β-glucosidase was added, and the mixture was well mixed by gentle shaking. • 3) The cleavage reaction system in step 2) was transferred to a thermostatic incubator at 25° C. for 0 h, 1 h, 2 h, 4 h, or 24 h of incubation. Samples were taken and loaded at various time points for LC-MS analysis.
# C4-2 = details: C4-2, 72 h, CellTiter-Glo
# Experimental: Cells were prepared in advance, trypsinized, collected, counted, diluted to 1.5×10^4 cells/mL in a complete cell culture medium, and plated in 96-well plates. The diluted cell suspension was added at 100 μL/well, and negative and blank control wells were set on each plate. The 96-well plates with the added cells were incubated overnight at 37° C. in a 5% CO2 incubator.
# Samples were serially diluted with medium (serially 3-fold diluted from 10 μM) to 9 concentrations. The medium in the plates was discarded, and the drug solutions were added at 100 μL per well to a 96-well plate in triplicate. Negative and blank controls were set. The plates were incubated at 37° C. for 72 h in a 5% CO2 incubator.
# The CellTiter-Glo buffer was thawed and warmed to room temperature, and the CellTiter-Glo substrate was warmed to room temperature. The CellTiter-Glo buffer was added to the flask containing CellTiter-Glo substrate to dissolve the substrate, thereby preparing a CellTiter-Glo working solution, which was then vortexed slowly to complete dissolution. The cell culture plates were equilibrated at room temperature for 30 min, before the CellTiter-Glo working solution was added at 50 μL/well (about half the volume of cell culture medium in each well). The plate was covered by aluminum foil to keep out of light. The culture plate was shaken on an orbital shaker for 2 min to induce cell lysis. The culture plate was left to stand at room temperature for 10 min to stabilize the luminescence signals. The luminescence signal was detected on a microplate reader (Molecular Devices SpectraMax iD5).
# Four-parameter curves were fitted using GraphPad Prism 8.0.2 to give IC50 values.
# SK-OV-3 = assay: Expansion inhibition of tumor cells (Example 10, CCK-8); format: cell-based; details: Homo sapiens, SK-OV-3 (FOLR1 overexpression), 72 h
# Experimental: Samples were serially diluted with medium (serially 5-fold diluted from 10 μM) to 9 concentrations. […] Negative and blank controls were set.
# A CCK-8 developing solution was added at 10 μL/well (10% of the liquid volume in the wells). The plates were incubated at 37° C. for a proper time (the OD value was controlled within the range of 1.0-2.5 as possible). The plate covers were removed, and the 96-well plates were loaded on a microplate reader (Molecular Devices SpectraMax iD5) to read the measurement at 450 nm.
structure (smiles),measurement,setting,value
CC[C@@H]1C(=O)N(C)c2cnc(Nc3ccc(-c4cn([C@H]5CC[C@@H](N(CCOCCC#Cc6cccc7c6CN(C6CCC(=O)NC6=O)C7=O)C(=O)OCc6ccc(O[C@@H]7O[C@H](C(=O)O)[C@@H](O)[C@H](O)[C@H]7O)c(NC(=O)CCNC(=O)COCCOCCn7cc(C[C@H](NC(=O)[C@H](CCCCN)NC(=O)[C@H](CC(=O)O)NC(=O)[C@H](CC(=O)O)NC(=O)Cc8ccc(CNC(=O)NCCCC[C@H](NC(=O)N[C@@H](CCC(=O)O)C(=O)O)C(=O)O)cc8)C(=O)N[C@@H](CCCCNC(=O)CC[C@H](NC(=O)c8ccc(NCc9cnc%10[nH]c(N)nc(=O)c%10n9)cc8)C(=O)O)C(N)=O)nn7)c6)CC5)nn4)cc3OC)nc2N1C1CCCC1 (some centres unmarked) [CR202AL],solubility at 2 min,Solubility study in PBS,5700 µg/mL
same,CR20274 release rate (actual release/theoretical release),Plasma stability study 2; 0 h,0.01%
same,Residual rate of principal component,Plasma stability study 2; 0 h,76.04%
same,CR20274 release rate (actual release/theoretical release),Plasma stability study 2; 0.5 h,0.47%
same,"remaining at 0.5 h, 100 μg/mL","Plasma stability study 2; 0.5 h, read-out: Residual rate of principal component",69.8%
same,CR20274 release rate (actual release/theoretical release),Plasma stability study 2; 1 h,0.86%
same,"remaining at 1 h, 100 μg/mL","Plasma stability study 2; 1 h, read-out: Residual rate of principal component",78.1%
same,CR20274 release rate (actual release/theoretical release),Plasma stability study 2; 2 h,0.96%
same,"remaining at 2 h, 100 μg/mL","Plasma stability study 2; 2 h, read-out: Residual rate of principal component",75.6%
same,CR20274 release rate (actual release/theoretical release),Plasma stability study 2; 4 h,2.60%
same,"remaining at 4 h, 100 μg/mL","Plasma stability study 2; 4 h, read-out: Residual rate of principal component",74.9%
same,CR20274 release rate (actual release/theoretical release),Plasma stability study 2; 6 h,3.69%
same,"remaining at 6 h, 100 μg/mL","Plasma stability study 2; 6 h, read-out: Residual rate of principal component",57.1%
same,CR20274 release rate (actual release/theoretical release),Plasma stability study 2; 24 h,28.17%
same,Residual rate of principal component,Plasma stability study 2; 24 h,1.20%
same,pIC50,22RV1,8.20
same,pIC50,MDA-MB-231,8.60
same,Degradation of BRD4 (Western Blot),BRD4; 3 nM over 6 h,almost completely degrading
same,Degradation of BRD4 (Western Blot),BRD4; at 24 h (FIG. 4B),still retain strong degradation activity
same,CR20274 release rate of CR202AL after cleavage,β-glucosidase; 0 h,5.16%
same,Principal component residue of CR202AL after cleavage,β-glucosidase; 0 h,100.00%
same,CR20274 release rate of CR202AL after cleavage,β-glucosidase; 1 h,107.33%
same,Principal component residue of CR202AL after cleavage,β-glucosidase; 1 h,26.70%
same,CR20274 release rate of CR202AL after cleavage,β-glucosidase; 2 h,146.03%
same,Principal component residue of CR202AL after cleavage,β-glucosidase; 2 h,9.75%
same,CR20274 release rate of CR202AL after cleavage,β-glucosidase; 4 h,146.54%
same,Principal component residue of CR202AL after cleavage,β-glucosidase; 4 h,4.87%
same,CR20274 release rate of CR202AL after cleavage,β-glucosidase; 24 h,100.80%
same,Principal component residue of CR202AL after cleavage,β-glucosidase; 24 h,0.00%
same,pIC50,C4-2,9.30
Cc1ncsc1-c1ccc(CNC(=O)C2CC(O)CN2C(=O)C(NC(=O)COCCOCC(=O)NC2(C(=O)NCCCn3cc(-c4ccc(OC(F)(F)F)cc4)c4cc(CN5CCN(Cc6c(Cl)cccc6Cl)CC5)ccc43)CCNCC2)C(C)(C)C)cc1 (centres unmarked) [CR202CF],pIC50,SK-OV-3,7.50
Cc1ncsc1-c1ccc(CNC(=O)C2CC(O)CN2C(=O)C(NC(=O)COCCOCCOCC(=O)NC2(C(=O)NCCCn3cc(-c4ccc(OC(F)(F)F)cc4)c4cc(CN5CCN(Cc6c(Cl)cccc6Cl)CC5)ccc43)CCNCC2)C(C)(C)C)cc1 (centres unmarked) [CR202CI],pIC50,SK-OV-3,9.52

# Source: patent US20260007756A1, “COMPOUND AND USE THEREOF” (COHERENT BIOPHARMA (SUZHOU) LIMITED, priority 2022, published 2026)
